Measured values from US20080274950A1 (BABRAHAM INSTITUTE, published 2008).

Experiments:
Experiment in all cases: adhesion of K562 transfectants to coated N-cadherin Fc
[1] = biological target: T1, wild type full length chicken N-cadherin expressed on stably transfected K562 cells (chicken, UniProt P10288 165-912)
T1 construct: whole, on cells; also called K562 transfectants (Wt); wild type cells
T1 sequence (looked up): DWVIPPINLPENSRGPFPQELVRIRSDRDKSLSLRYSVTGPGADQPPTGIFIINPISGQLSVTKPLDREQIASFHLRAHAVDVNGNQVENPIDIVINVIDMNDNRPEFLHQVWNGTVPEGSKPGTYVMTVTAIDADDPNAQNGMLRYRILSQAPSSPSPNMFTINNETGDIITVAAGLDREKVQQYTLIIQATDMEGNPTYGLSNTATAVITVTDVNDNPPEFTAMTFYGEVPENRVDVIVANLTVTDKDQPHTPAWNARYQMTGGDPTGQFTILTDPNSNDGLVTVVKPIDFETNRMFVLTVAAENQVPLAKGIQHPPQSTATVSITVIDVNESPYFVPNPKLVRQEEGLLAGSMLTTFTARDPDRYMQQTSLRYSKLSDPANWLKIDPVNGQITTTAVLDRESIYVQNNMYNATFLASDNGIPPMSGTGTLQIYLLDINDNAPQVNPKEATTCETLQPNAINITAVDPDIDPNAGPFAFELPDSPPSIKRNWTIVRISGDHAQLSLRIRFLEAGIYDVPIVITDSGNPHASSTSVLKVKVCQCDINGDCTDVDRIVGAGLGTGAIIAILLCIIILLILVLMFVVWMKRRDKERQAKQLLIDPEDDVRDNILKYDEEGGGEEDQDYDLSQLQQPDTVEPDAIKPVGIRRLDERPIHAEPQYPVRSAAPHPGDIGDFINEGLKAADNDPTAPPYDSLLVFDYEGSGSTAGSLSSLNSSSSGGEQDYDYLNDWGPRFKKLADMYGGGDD
Procedure, shortened: (§1)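 K562 (or L) cells transfected with wild-type or mutant N-cadherin settled 45 min at 37 °C onto N-cadherin Fc coated at 1 µg/ml. After non-adherent cells were washed off, bound cells were quantified by acid phosphatase activity. Values are % cells adhering ± SEM, quadruplicate.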

[2] = biological target: T2, full length chicken N-cadherin with the mutation E89A expressed on K562 cells (chicken, UniProt P10288 165-912, E89A)
T2 construct: whole, on cells; also called cells expressing the E89A mutation; K562 E89A
T2 sequence (looked up): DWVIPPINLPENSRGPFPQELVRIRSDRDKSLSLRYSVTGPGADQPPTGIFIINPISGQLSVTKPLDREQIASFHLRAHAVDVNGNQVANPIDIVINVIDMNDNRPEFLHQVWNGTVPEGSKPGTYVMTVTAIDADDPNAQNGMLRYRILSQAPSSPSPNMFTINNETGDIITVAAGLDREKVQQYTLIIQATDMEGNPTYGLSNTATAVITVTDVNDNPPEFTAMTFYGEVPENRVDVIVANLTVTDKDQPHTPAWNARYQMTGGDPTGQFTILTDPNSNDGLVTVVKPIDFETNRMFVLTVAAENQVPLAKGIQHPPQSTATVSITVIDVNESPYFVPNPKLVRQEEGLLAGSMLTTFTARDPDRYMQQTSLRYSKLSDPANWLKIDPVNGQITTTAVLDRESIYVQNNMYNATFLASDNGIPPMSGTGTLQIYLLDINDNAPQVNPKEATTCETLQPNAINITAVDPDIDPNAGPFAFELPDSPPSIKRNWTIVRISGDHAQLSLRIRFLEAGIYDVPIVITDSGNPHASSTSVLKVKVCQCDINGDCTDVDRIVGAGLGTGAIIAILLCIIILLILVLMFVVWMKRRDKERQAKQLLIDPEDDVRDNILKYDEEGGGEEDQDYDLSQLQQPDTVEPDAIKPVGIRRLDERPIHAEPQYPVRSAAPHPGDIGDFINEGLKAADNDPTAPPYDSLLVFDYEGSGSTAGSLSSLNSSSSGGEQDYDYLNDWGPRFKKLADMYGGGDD
Procedure, shortened: as §1

[3] = biological target: T3, full length chicken N-cadherin with the N-terminus extended by two glycine residues (GG) expressed on K562 … (chicken, UniProt P10288 165-912)
T3 construct: whole, on cells; also called cells expressing the GG N-terminal extension mutant; K562 GG
T3 sequence: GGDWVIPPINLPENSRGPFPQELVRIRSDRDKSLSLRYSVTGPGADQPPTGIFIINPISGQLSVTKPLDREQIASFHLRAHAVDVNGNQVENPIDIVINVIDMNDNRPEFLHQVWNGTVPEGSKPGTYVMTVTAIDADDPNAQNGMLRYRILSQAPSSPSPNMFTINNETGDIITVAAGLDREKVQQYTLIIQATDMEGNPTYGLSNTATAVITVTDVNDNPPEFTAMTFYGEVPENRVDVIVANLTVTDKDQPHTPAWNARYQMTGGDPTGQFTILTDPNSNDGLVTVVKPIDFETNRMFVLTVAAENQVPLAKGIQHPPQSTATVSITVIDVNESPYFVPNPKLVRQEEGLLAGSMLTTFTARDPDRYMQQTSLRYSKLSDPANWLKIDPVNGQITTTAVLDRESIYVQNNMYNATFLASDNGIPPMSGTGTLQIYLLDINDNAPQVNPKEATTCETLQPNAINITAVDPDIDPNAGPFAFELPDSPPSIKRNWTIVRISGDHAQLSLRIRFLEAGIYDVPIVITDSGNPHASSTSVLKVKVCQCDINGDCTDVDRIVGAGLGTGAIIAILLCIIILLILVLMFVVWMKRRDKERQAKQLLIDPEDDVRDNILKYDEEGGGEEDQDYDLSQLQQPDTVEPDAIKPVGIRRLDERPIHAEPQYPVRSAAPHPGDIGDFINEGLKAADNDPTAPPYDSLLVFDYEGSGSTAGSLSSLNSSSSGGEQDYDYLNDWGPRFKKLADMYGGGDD
Procedure, shortened: as §1

B1: chicken N-cadherin-Fc fusion protein with the mutation D134A, dimeric (Fc fusion, UniProt P10288 165-728, looked up)
chain: DWVIPPINLPENSRGPFPQELVRIRSDRDKSLSLRYSVTGPGADQPPTGIFIINPISGQLSVTKPLDREQIASFHLRAHAVDVNGNQVENPIDIVINVIDMNDNRPEFLHQVWNGTVPEGSKPGTYVMTVTAIAADDPNAQNGMLRYRILSQAPSSPSPNMFTINNETGDIITVAAGLDREKVQQYTLIIQATDMEGNPTYGLSNTATAVITVTDVNDNPPEFTAMTFYGEVPENRVDVIVANLTVTDKDQPHTPAWNARYQMTGGDPTGQFTILTDPNSNDGLVTVVKPIDFETNRMFVLTVAAENQVPLAKGIQHPPQSTATVSITVIDVNESPYFVPNPKLVRQEEGLLAGSMLTTFTARDPDRYMQQTSLRYSKLSDPANWLKIDPVNGQITTTAVLDRESIYVQNNMYNATFLASDNGIPPMSGTGTLQIYLLDINDNAPQVNPKEATTCETLQPNAINITAVDPDIDPNAGPFAFELPDSPPSIKRNWTIVRISGDHAQLSLRIRFLEAGIYDVPIVITDSGNPHASSTSVLKVKVCQCDINGDCTDVDRIVGAGLGT
notes: extracellular domain; also called D134A mutant; N-cadherin Fc mutant D134A; not shown: hinge region, CH2 and CH3 domains of human IgG1 heavy chain (vector pIgSig)
- binding result [1]: no binding (tested: Fc fusion protein coated at 1 µg/ml)
- binding result [2]: no binding (tested: Fc fusion protein coated at 1 µg/ml)
- binding result [3]: no binding (tested: Fc fusion protein coated at 1 µg/ml)
